Biological target: T1, 6xHis-NELF-E-mOrange (Drosophila, UniProt P92204 1-280)
T1 sequence: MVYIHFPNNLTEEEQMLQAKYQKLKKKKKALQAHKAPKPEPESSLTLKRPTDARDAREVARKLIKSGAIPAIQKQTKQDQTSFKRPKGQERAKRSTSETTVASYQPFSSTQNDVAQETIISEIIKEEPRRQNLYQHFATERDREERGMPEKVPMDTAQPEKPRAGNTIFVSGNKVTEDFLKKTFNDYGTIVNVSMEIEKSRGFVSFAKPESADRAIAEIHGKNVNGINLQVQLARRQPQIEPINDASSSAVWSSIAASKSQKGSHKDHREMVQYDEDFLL
Assay: HiTS-RAP fluorescence

B1: NELFapt A39U_U61A (structured_RNA)
RNA: GGGAAUGGAUCCACAUCUACGAAUUCCCAACGACUGCCGAGCGAGAUUACGCUUGAGCGCCCCUCUGAGGAUGCCCACGGGCGAUAGGGGCACGGCUUCACUGCAGACUUGACGAAGCUU
- binding result: binds

From paper PMC4073888
